Here are results for 1 substance from patent US20120207760A1.

Several values for one entry are separate records, joined by “and”; a condition that tells them apart may be missing. Equal entries are not always repeated.

The target of the experiment is M2 protein of influenza A/Hong Kong/483/97 (H5N1) (Influenza A virus A/Hong Kong/483/97).

Chain of TCN-032 (8I10) (antibody) (VH): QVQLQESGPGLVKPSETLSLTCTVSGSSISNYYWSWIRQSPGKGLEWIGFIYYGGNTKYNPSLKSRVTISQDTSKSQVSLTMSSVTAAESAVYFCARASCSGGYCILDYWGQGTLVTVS
Chain of TCN-032 (8I10) (antibody) (VL): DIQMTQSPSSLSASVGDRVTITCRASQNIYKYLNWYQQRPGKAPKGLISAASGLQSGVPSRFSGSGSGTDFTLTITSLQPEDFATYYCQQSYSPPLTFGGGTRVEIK

On to TCN-032 (8I10) (antibody), for which the FACS M2-HK MFI was 754 MFI and 1080 MFI.
